In the NTF2 design screens of Basanta et al. (2020) one finds protease stability score data, which are given here for 18 sequences.

The nature of the series: protease stability score; higher = more stable; yeast display proteolysis, trypsin and chymotrypsin.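 Note: relative to predicted unfolded state with 0 unfolded-like and 1 meaning tenfold more protease.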
For the sequence “SEEEVQFRRFFEAFLHFWETGDEKMLKTLLDPHVKFTVHFENHRSHYHGREEFTKFLHELGVKHFELDRVRIEFQGDKIRIEIDGVLLYDGRFHESHIILIIVKVDGRWVIHQLHIQIE”, the protease stability score amounted to 2.15.
In the case of “SEEEWLTEYIWRVFIRLLLTGDERAINKLLDPHVQVDVGDKRIHGRELLSHIWRTEAEEIRHHIEVKRFHSQGEKVHHDVRITIIINGQVHRIEAHIHLFIYDGRITHIEVEFR”, the protease stability score was 1.36.
The sequence “SEEEYWAKEMAILLDIAWYTGDEERFEEYVDPNTRIDFDGRVFHGREFLHHFRERVDHMREVRSRIESVHKQGDKLRVHGHLIIQGVIDGVDTQQRFKVHFIMEKVDGRWIFREEIYK” had a protease stability score of 1.51.
For “SEEFEILFRLLEELDRAFETGDFKRFMELADPHTRLDVGEFHHWGREKVLEFWRHWRVKHVRVEFKRIDYQGDKLHTDGILRHTGEINGQETHEETRTNIHLIVINGRMHALEVRII” the value was 2.01; for “SEEFEIYKRASELLAHLMLTGDFDTMNKLMDPNVRLDVDGVDFHGRELVNRKFQHMRIEHTHIERVIWIGDKVHVHTTMTGNIDGRRDERKMEIVSHKVDGRWHVHSVIIL”, 1.12; for “SEEHDKLQRLIRQWWSEFETGDEDKLTEMFDPHARLHIDGRDVIGRENVSKFVFDFFFEMRIHRTHIEHVDAQGDFLILHYHVRGTVNGRESDIHVLIIFTVVNGRMKSVHVHNE”, 1.38.
In the case of “SEEHEDAEKWIRILLRDLKTGDEESLFQLLDPHTKLEVGDKHFHGREQVMRYVLHELKRVDHMEVELKHHHIQGEKAHLDIEVHNIFDGRVFVKHVHIDSKKINGRWRQEKIYIE” it was 1.33; in that of “SEEHEDAHEMFELWSILLITGDERILHQLMDPDAKTTIDGQEFHGREKLIEVFREFLKRIDHIHEVEVTRMTFFDGRLHINLRVHVTINGVHRQFRVIIIIVKIDGRWVIQSQEIV”, 1.63; in that of “SEEHEDIKKFLDDLHSAWNTGDWKALEHMLDPHVKFEINGRNFVGREEVRKLLEQIRLHPRSEIKDVRMQGEFVIVDGRVKIKINVNGREHHEVQEIILYLRKVNGKWYIEEIEIR”, 1.54.
In the case of “SEEHEEAEHWVRLFIEFMLTGDFDEYRQLMDPNDYIEVGDKSLIGMENWHHLLNRVKNLTIRVKRVRVRVVNGRIHVEMDVRDIINGQEVETRIEMVAVKVNGRWLLKTVHLERE” it was 1.74; in that of “SEEHEEERHHVEDLLRALWTGNEEHLKKLADPHMRTILIVNGKQLDLHGWRDMWRALREIRERLGIDHEHIHRSRIYNGRLEIDSRVEVDGVHHIVKIRVDVIDGKNHEFKIEFR”, 1.63.
“SEEHEEVERLMRIYFEERLTGDWDRWLSNVDPHTRIIIEIGDKRIELHGWKDFLRFLRFIKNITIHHVHIRHVDVQGDKAHVDEEIDVTIGDKRTKITHEMIIIVVNGRIKHVYERYI” registered a protease stability score of 1.44.
In the case of “SEEHEEVHKVIEMLVRHARTGDEDYLRNQFDPNARVRFNGKDRHGRESLDEMLKQFDVIKEVRIKRIDVQGEKIHADIEIRGRYNGQEINTESHIVFKKINGQWIIEEVEFK” it was 1.6; in that of “SEEHEFWERLARLTLHWLETGDWDKMNKNADPNVRTEVNGQELHGRESTTEIMRRDEKFFKNARFHLESMDVQGDKVHLIFEVDYNGRTIRRHLDWVIINGRFKEIRVEIR”, 1.17; in that of “SEEHEHIRRVWEEIRRVLETGDEEALMRMIDPNVRIRNVQGDKELDIHGRESVVRRILKIFQEIWFDFEDRHIDIQGDKLHIEGHLILRVNGREHRLDVREVWVVVNGVIHTVEFMVE”, 1.29.
For “SEEHEIIERMMRLFLNYYFTGDEESIQKNADPDVKLNINGRDIHGRERIAEHLFDEIKHLRWHHLHIHSFIVQGEKARVDTRFDGEVDGVRTIFETEIILVVVNGRMKSIEVHRR” the value was 1.28; for “SEEHEISERLAWMIFELYRTGNEQSIRHLMDPRARIDVNGKEIHGRHIWKERFEEHLVFFKNLRFHLDDVDVQGDKIDIHGTNRFDGRHVRFDLHIHVVDGRLKVITVRIDER”, 1.55.
For “SEEHEKLHHLMELMLNAITTGDWEIIEHLADPNVRIDQGEWHDHGREKLIHIHELVRERMGIKHVEVRDSRMFHINGVVVIILRLDLNVNGKHRFEILRLQFRKVDGQWVMHSLDIELR” the value was 1.74.
